Earlier results on one molecule are cited in patent publication US20060182683A1, “Methods for reduced renal uptake of protein conjugates” (Center for Molecular Medicine and Immunology, priority 1995, published 2006).

In series [1] the target is T1, mammalian placental ribonuclease inhibitor (Homo sapiens, UniProt P13489).
T1 sequence (P13489 1-461): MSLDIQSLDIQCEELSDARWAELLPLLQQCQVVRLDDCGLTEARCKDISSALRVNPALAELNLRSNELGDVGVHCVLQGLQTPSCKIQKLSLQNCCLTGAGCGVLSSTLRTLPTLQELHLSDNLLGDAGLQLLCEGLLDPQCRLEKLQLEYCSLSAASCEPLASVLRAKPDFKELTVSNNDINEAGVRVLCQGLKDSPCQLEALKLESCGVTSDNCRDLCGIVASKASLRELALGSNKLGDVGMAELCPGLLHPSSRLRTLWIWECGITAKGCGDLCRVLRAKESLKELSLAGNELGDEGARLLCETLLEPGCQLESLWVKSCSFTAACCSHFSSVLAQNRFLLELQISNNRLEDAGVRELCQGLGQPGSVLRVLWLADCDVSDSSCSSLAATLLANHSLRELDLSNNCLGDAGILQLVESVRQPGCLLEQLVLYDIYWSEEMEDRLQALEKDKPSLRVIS
To be noted: cited from earlier work.

A further series deals with Xenopus oocytes. To be noted: microinjected into Xenopus oocytes; read-out: IC50, inhibition of protein synthesis; cited from earlier work.
In another series the test system is dogs. To be noted: 0.005-0.15 mg/kg; cited from earlier work.
For series [2], the system named is patients suffering from a variety of relapsing and resistant tumors. To be noted: intravenous; mainly due to renal toxicity; cited from earlier work.
The subject of another series is rats. The settings on record: dose range 0.01-0.02 mg/kg; cited from earlier work.
The test system of series [3] is M109 Madison lung carcinoma. To be noted: cited from earlier work.
Series [4] has as its system protein synthesis in a rabbit reticulocyte lysate. The settings on record: read-out: IC50, inhibition of protein synthesis; cited from earlier work.

B1: ranpirnase (protein, UniProt P22069 1-104, looked up)
Protein P-30: QDWLTFQKKHITNTRDVDCDNIMSTNLFHCKDKNTFIYSRPEPVKAICKGIIASKNVLTTSEFYLSDCNVTSRPCKYKLKKSTNKFCVTCENQAPVHFVGVGSC
notes: non-mammalian ribonuclease (RNAse), molecular weight 12,000, purified from Rana pipiens oocytes and early embryos
As to B1, the “inhibition by mammalian placental ribonuclease inhibitor” value in series [1] is listed as “not inhibited”. Moreover, the IC50 was 100 pM in the series with Xenopus oocytes and 10 pM in series [4]. Besides, the toxicity result in the series on dogs is “predictable, dose-dependent and reversible toxicity”; with rats it was “predictable, dose-dependent and reversible toxicity”. Also, the maximum tolerated dose in series [2] was 960 μg/m^2. Also, in series [3] (daily and weekly schedules, intraperitoneal), the survival entry is “significantly prolonged survival”. Also, in series [3] (weekly schedule), the “animals surviving long-term, apparently cured” value was “six of eighteen”.

A word on the IC50: it is the concentration that gives 50% inhibition.
